In the data set the target is peptide substrate shown in FIG. 9a (Protease K substrate).

The text below walks through data of patent US20170226560.

B1: Protease K (protein)
chain: AAQTNAPWGLARISSTSPGTSTYYYDESAGQGSCVYVIDTGIEASHPEFEGRAQMVKTYYYSSRDGNGHGTHCAGTVGSRTYGVAKKTQLFGVKVLDDNGSGQYSTIIAGMDFVASDKNNRNCPKGVVASLSLGGGYSSSVNSAAARLQSSGVMVAVAAGNNNADARNYSPASEPSVCTVGASDRYDRRSSFSNYGSVLDIFGPGTSILSTWIGGSTRSISGTSMATPHVAGLAAYLMTLGKTTAASACRYIADTANKGDLSNIPFGTVNLLAYNNYQA
With B1, the “ratio of the absorption at 700 nm/520 nm (750 nM peptide, Protease K up to 300 pM, 60 min, 20 C)” value was “With increasing amounts of protease K the spectrum shifts back toward the native spectrum seen in the gold nanoparticles alone and the ratio falls to nearly 0”.
